Data as given in patent publication US20100008909A1 (ZymoGenetics, published 2010).
Several values for one entry are separate records, joined by “and”; a condition that tells them apart may be missing. Equal entries are not always repeated.

Molecular target: T1, biotinylated IL31 (human, UniProt Q6EBC2 24-164, biotinylated (sites not given))
T1 construct: also called human IL-31; huIL-31
T1 sequence: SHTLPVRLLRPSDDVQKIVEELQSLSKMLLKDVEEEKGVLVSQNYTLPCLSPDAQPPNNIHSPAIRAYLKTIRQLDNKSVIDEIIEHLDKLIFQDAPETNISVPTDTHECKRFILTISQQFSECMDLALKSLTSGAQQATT
Test: ELISA with a dilution series of biotinylated IL31, 4-parameter fit (apparent Kd/EC50 as IL31 concentration); parental mouse mAb as control; average of duplicate
Description: The assay format utilized a goat anti-human Fc immobilization for capture of human monoclonal antibodies from unprocessed cell culture conditioned media. A dilution series of biotinylated IL31 tested the “C” parameter of a 4-parameter fit which results in the apparent Kd (or EC50) in either ng/mL or nM of IL31. The assay sensitivity is high enough that dilute monoclonal antibody or chimeric antibody cell culture conditioned media can be evaluated. The Kd determined by this method generally approaches the Kd measured for purified, homogeneous monoclonal antibodies measured using Biacore.

B1: 292.63.5.3 (Lot E9289) Control monoclonal antibody (antibody, V domains shown)
VH: EVQLVESGGDLVKPGGSLKLSCAASGFTFSTFIMSWVRQSPEKRLEWVATINSGGYYTFHPDSVKGRFTISRDNAKNTLYLQMSSLRSEDTAIYYCARQEGWSSAYFSWGQGTLVTVSA
VL: DIVMTQSPSSLDMSEGQKVTMICKSSQSLLNGSNQKNYLAWYQQKPGQSPKLLVSFASTRDSGVPDRFIGSGSGTDFTLTITNVQAEDLADYFCQQHYDTPYTFGGGKLEIR
notes: Mouse anti-human IL-31 hybridoma monoclonal antibody
  EC50: 0.0043 µg/mL and 0.26 nM
